Tested on: E. coli K12 ΔacrAB
Assay: Survival assay on agar plate in olefin saturated atmosphere, strains producing AcrAB or AcrB variants
Type: cell-based
Details: 1-hexene saturated atmosphere; for tolerance to 1-hexene relative to wild type AcrB sequence: single mutation AcrB variants, FIG. 4A
Description: FIG. 2: impact of AcrAB production on growth, in presence of styrene 1-hexene, 1-octene and 1-nonene on cell growth. A: Different concentrations of styrene were added to an OD600=0.2 culture of E. coli K12 ΔacrAB containing the pABc (white) or the control plasmid p0c (black). OD density was monitored after 2 hours of growth at 37° C. The bars represent standard deviation between duplicates. B: A survival test in presence of 1-hexene, 1-octene, or 1-nonene saturated atmosphere was performed. Six different dilutions of cultures (10 cells to 10^7 cells, left to right on the figure) were spotted in triplicate on an agar plates. Plates were then exposed to the aforementioned chemicals.
FIG. 4: Impact of beneficial mutations on AcrB on tolerance to 1-hexene, A: Survival test of E. coli strain producing either the AcrB wild type or variants in a 1-hexene saturated atmosphere was performed. Two dilutions of cultures (Dilution 1: 10^5 cells and Dilution 2: 10^4 cells) were spotted in triplicate on an agar plate. B: Localization of the 6 beneficial mutations represented on the structure of a single monomer of AcrB or C: on the structure of the AcrB trimer.
FIG. 6: Impact of beneficial mutations on AcrB on tolerance to 1-hexene. A: Survival test of E. coli strain producing either the AcrB Wild type or variants with 1, 2 or several beneficial mutations, in an 1-hexene saturated atmosphere was performed. Two dilutions of cultures (Dilution 2: 10^4 cells and Dilution 3: 10^3 cells) were spotted in triplicate on an agar plate. B: Soluble fraction of total proteins from a culture of strains producing either the wild type, either the variant F617L, either the variant 6 (A279T, Q584R, F617L) were analyzed by western blot using anti-His antibody.
For agar plate based assays, cells were first streaked overnight and few colonies were used to inoculate a preculture of 6 mL of LB-Cm with glucose (2 g/L) and arabinose (5 mM). At OD60=1 at 37° C., the cultures were used to prepare a dilution series. Dilution 0 (D0) corresponds to the OD600, =1, and contains ˜10^9 cells/mL. Dilution 1 (D1) is a 10-fold dilution of D0, dilution 2 (D2) a 10-fold dilution of D1 up to dilution 5 (D5), which contains ˜10^4 cells/mL. 10 μL of each dilution was spotted in triplicate on LB-agar plates (single well plates, Thermo Scientific, Waltham, Mass.) containing 30 mL of LB-agar, Cm (30 mg/L), glucose (2 g/L) and arabinose (5 mM). Small containers (microfuge tube lids) were placed on the open lid of the agar plate and filled with 400 to 600 μL of 1-hexene or 1-octene or with 75 μL of 1-nonene. The agar plates were then inverted over the lid, cells facing the olefin compound, sealed with parafilm, placed in the plastic bag (the original packaging for the petri dishes) and incubated for 2 days at room temperature. For 1-octene, a second condition, via overlaying 2 mL of compound on the top of the agar submerging the cells, was used. TolC overexpression impact was examined using the same method, but in this case, the LB media and the LB-agar were also supplemented with ampicillin (100 mg/L) and IPTG (100 μM). […]

Molecule | efficiency among the beneficial mutations | tolerance to 1-hexene relative to wild type AcrB sequence
A279T: E. coli AcrB (SEQ ID NO:1) variant with amino acid mutation A279T (protein, E. coli) MPNFFIDRPIFAWVIAIIIMLAGGLAILKLPVAQYPTIAPPAVTISASYPGADAKTVQDTVTQVIEQNMNGIDNLMYMSSNSDSTGTVQITLTFESGTDADIAQVQVQNKLQLAMPLLPQEVQQQGVSVEKSSSSFLMVVGVINTDGTMTQEDISDYVAANMKDAISRTSGVGDVQLFGSQYAMRIWMNPNELNKFQLTPVDVITAIKAQNAQVAAGQLGGTPPVKGQQLNASIIAQTRLTSTEEFGKILLKVNQDGSRVLLRDVAKIELGGENYDIITEFNGQPASGLGIKLATGANALDTAAAIRAELAKMEPFFPSGLKIVYPYDTTPFVKISIHEVVKTLVEAIILVFLVMYLFLQNFRATLIPTIAVPVVLLGTFAVLAAFGFSINTLTMFGMVLAIGLLVDDAIVVVENVERVMAEEGLPPKEATRKSMGQIQGALVGIAMVLSAVFVPMAFFGGSTGAIYRQFSITIVSAMALSVLVALILTPALCATMLKPIAKGDHGEGKKGFFGWFNRMFEKSTHHYTDSVGGILRSTGRYLVLYLIIVVGMAYLFVRLPSSFLPDEDQGVFMTMVQLPAGATQERTQKVLNEVTHYYLTKEKNNVESVFAVNGFGFAGRGQNTGIAFVSLKDWADRPGEENKVEAITMRATRAFSQIKDAMVFAFNLPAIVELGTATGFDFELIDQAGLGHEKLTQARNQLLAEAAKHPDMLTSVRPNGLEDTPQFKIDIDQEKAQALGVSINDINTTLGAAWGGSYVNDFIDRGRVKKVYVMSEAKYRMLPDDIGDWYVRAADGQMVPFSAFSSSRWEYGSPRLERYNGLPSMEILGQAAPGKSTGEAMELMEQLASKLPTGVGYDWTGMSYQERLSGNQAPSLYAISLIVVFLCLAALYESWSIPFSVMLVVPLGVIGALLAATFRGLTNDVYFQVGLLTTIGLSAKNAILIVEFAKDLMDKEGKGLIEATLDAVRMRLRPILMTSLAFILGVMPLVISTGAGSGAQNAVGTGVMGGMVTATVLAIFFVPVFFVVVRRRFSRKNEDIEHSHTVDHH | more efficient | improvement in tolerance
F617L: E. coli AcrB (SEQ ID NO:1) variant with amino acid mutation F617L (protein, E. coli) MPNFFIDRPIFAWVIAIIIMLAGGLAILKLPVAQYPTIAPPAVTISASYPGADAKTVQDTVTQVIEQNMNGIDNLMYMSSNSDSTGTVQITLTFESGTDADIAQVQVQNKLQLAMPLLPQEVQQQGVSVEKSSSSFLMVVGVINTDGTMTQEDISDYVAANMKDAISRTSGVGDVQLFGSQYAMRIWMNPNELNKFQLTPVDVITAIKAQNAQVAAGQLGGTPPVKGQQLNASIIAQTRLTSTEEFGKILLKVNQDGSRVLLRDVAKIELGGENYDIIAEFNGQPASGLGIKLATGANALDTAAAIRAELAKMEPFFPSGLKIVYPYDTTPFVKISIHEVVKTLVEAIILVFLVMYLFLQNFRATLIPTIAVPVVLLGTFAVLAAFGFSINTLTMFGMVLAIGLLVDDAIVVVENVERVMAEEGLPPKEATRKSMGQIQGALVGIAMVLSAVFVPMAFFGGSTGAIYRQFSITIVSAMALSVLVALILTPALCATMLKPIAKGDHGEGKKGFFGWFNRMFEKSTHHYTDSVGGILRSTGRYLVLYLIIVVGMAYLFVRLPSSFLPDEDQGVFMTMVQLPAGATQERTQKVLNEVTHYYLTKEKNNVESVFAVNGFGLAGRGQNTGIAFVSLKDWADRPGEENKVEAITMRATRAFSQIKDAMVFAFNLPAIVELGTATGFDFELIDQAGLGHEKLTQARNQLLAEAAKHPDMLTSVRPNGLEDTPQFKIDIDQEKAQALGVSINDINTTLGAAWGGSYVNDFIDRGRVKKVYVMSEAKYRMLPDDIGDWYVRAADGQMVPFSAFSSSRWEYGSPRLERYNGLPSMEILGQAAPGKSTGEAMELMEQLASKLPTGVGYDWTGMSYQERLSGNQAPSLYAISLIVVFLCLAALYESWSIPFSVMLVVPLGVIGALLAATFRGLTNDVYFQVGLLTTIGLSAKNAILIVEFAKDLMDKEGKGLIEATLDAVRMRLRPILMTSLAFILGVMPLVISTGAGSGAQNAVGTGVMGGMVTATVLAIFFVPVFFVVVRRRFSRKNEDIEHSHTVDHH | more efficient | improvement in tolerance

From patent US10513713B2, “Modified host cells having tolerance to α-olefins” (priority 2014, dated 2019)
